The target in this assay is p65 (UniProt Q04206). Nature of the assay: anti-FLAG co-IP, anti-p65 blot. The conditions noted are these: reference: Flag-WT, IL-1β treated; sites S15.

For “PRMT5 (from UniProt O14744) Flag-S15A, IL-1β treated”, the “binding against the reference” value is “weaker”.

Source of the values: article PMC7279388.
